Source: patent US20230220038A1, “BRI2 BRICHOS DOMAIN FOR DELIVERY OF PROTEINS INTO CNS NEURONS” (ALPHABETA AB, priority 2021, published 2023)

Experiments:
mice = conditions: mouse, in vivo
[1] = test system: hippocampal slice preparations; assay: Aβ42-induced neurotoxicity in hippocampal slice preparations
[2] = test system: App^NL-G-F and App^NL-F mice; conditions: mouse, in vivo, iv
Protocol: After the end of 10-12 weeks of treatment, Bri2 BRICHOS amounts in the CNS were analysed.
Representative sections (A,D) were double stained with anti-Bri2 BRICHOS antibody (red/pink color) and 82E1 anti-Aβ antibody (green color) counterstained with hematoxylin Mayer (blue color) in rh Bri2 BRICHOS R221E or PBS treated App^NL-G-F and App^NL-F mice. Histograms represents mean intensity of Bri2 BRICHOS in hippocampus (B,E) and cortex (C,F) of App^NL-G-F (B,C) and App^NL-F (E,F) mice. Data are shown as mean±SEM (n=3-4 mice/group, 4 histological sections from each mouse analyzed). Unpaired parametric two-tailed t-test was used to calculate p-values. Scale bars represents 400 μm (upper four panels in A and D) and 100 μm (lower two panels in A and D). * p<0.05, ** p<0.01, *** p<0.001, **** p<0.0001.

Aβ42 = Aβ42 (Homo sapiens, UniProt P05067); assay: Aβ42 oligomer generation; type: biochemical
mouse primary neurons = assay: Uptake into primary neurons in culture, fluorescence microscopy; type: cell-based; conditions: low nanomolar concentrations in culture medium, 24-48 h
Protocol: The data in FIG. 11A indicate that the fusion protein rh NT-Bri2 BRICHOS is internalized in CNS cells and appears in intracellular vesicles. We studied the intracellular localization in more detail, using primary mouse neurons in culture and the recombinant fusion protein mCherry-Bri2 BRICHOS. Recombinant mCherry-Bri2 BRICHOS was added to the culture medium at low nanomolar concentrations, and after 24-48 h the neurons were immobilized and visualized under a fluorescence microscope.

Chain of Aβ42 (P05067 672-713 limits assumed): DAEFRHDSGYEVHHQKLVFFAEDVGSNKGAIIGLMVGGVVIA

Substance	BBB passage (mice)	effect on Aβ42-induced neurotoxicity [1]	overall Bri2 BRICHOS staining (mean intensity, hippocampus and cortex) versus PBS [2]	effect on Aβ42 oligomer generation (Aβ42)	uptake into primary neurons (mouse primary neurons)
Bri2 BRICHOS R221E monomers: rh Bri2 BRICHOS mutated R221E so that the monomer is stabilised (SEQ ID NO: 13)	passes the BBB in mice and shows a trend towards higher passage than the wildtype protein	alleviates Aβ42-induced neurotoxicity	significant increase	selectively reduces Aβ42 oligomer generation	–
mCherry: control: ca 30 kDa fluorescent protein derived from sea anemones [reference compound]	–	–	–	–	not taken up to any detectable level
